The term Km denotes the concentration of substrate that gives half-maximal velocity. What is called Vmax is the top rate of the reaction or transport when substrate is in excess.

This data set has as its system N[C@H]1C(O)O[C@H](CO)[C@@H](O)[C@@H]1O. Nature of the data set: Kinetic analysis of Ef-GPDA with glucosamine (conversion of glucosamine to fructose, photometric at 505 nm after resorcinol derivatization). The following applies: other: substrate glucosamine (3 to 140 mM solutions, 30 μL), MES buffer pH 7.0, MgCl2, 40° C., 10 h. Format: biochemical, Enterococcus faecalis. On the procedure:
Reaction mixtures (50 μL) were centrifuged at 12000 g for 10 min at room temperature, and 40 μL samples of the supernatant were taken and mixed with 35 μL conc. HCl and 5 μL of resorcinol-thiourea reagent (consisting of 0.1% (w/V) resorcinol and 0.25% (w/V) in glacial acetic acid). The mixed samples were incubated at 80° C. for 10 min and then centrifuged at 12000 g for 10 min at room temperature. The supernatants (50 μL) were then transferred to 96 microplate and the absorbance at λ=505 nm measured with a microplate photometer (Thermo Multiskan).
Genes encoding the wild-type or mutant variants of GDPA were synthesized in an E. coli codon-optimized form (Genscript) and delivered in a pUC19 vector with ampicillin resistance. The protein-encoding insert was cut via Ndel and Xhol restriction enzymes (Takara) and ligated in a pET30a expression vector via T4 Ligase (Takara). The GPDA enzymes were prepared as follows: a fresh single colony from an LB agar plate supplemented with […] Kanamycin and used to grow E. coli strain BL21 comprising the respective plasmid was used to inoculate 5 mL of LB liquid medium with the same concentration of Kanamycin. Following incubation of said culture over night at 120 rpm and 37° C. 2 mL of the overnight culture was used to inoculate 400 mL of the same medium in a 2 L flask. […]

For “Ef-GPDA, glucosamine-6-phosphate deaminase from Enterococcus faecalis, wild type, SEQ ID NO: 1 (Enterococcus faecalis V583)”, the Michaelis constant (Km) is 21.8 ± 2.3 mM and the Vmax came out at 4.0 ± 0.2 µmol/min.

The values above are taken from patent US12559740B2, “Process for the direct enzymatic conversion of amino sugars; enzyme and compositions for use in the process” (GLYCOMICS AND GLYCAN BIOENGINEERING RESEARCH CENTER …, priority 2021, dated 2026).
